Assays:
xylose isomerase [1] = test: Heterologous xylose isomerase expression in yeast (active yes/no); assay type: cell-based, Saccharomyces cerevisiae; conditions: xylose isomerase of the donor organism expressed in engineered yeast (S. cerevisiae)
xylose isomerase [2] = test: In vitro xylose isomerase activity assay (sorbitol dehydrogenase/NADH coupled, A340; Km, specific activity, Ki for xylitol); assay type: biochemical, Saccharomyces cerevisiae
Experimental: About 20 μg of soluble whole cell extract was incubated in the presence of 100 mM Tris, pH 7.5, 10 mM MgCl2, 0.15 mM NADH (Sigma, St. Louis, Mo.), and about 2 U sorbitol dehydrogenase (Roche) at about 30° C. […] A Beckman DU-800 was utilized with an Enzyme Mechanism software package (Beckman Coulter, Inc.), and the change in the A340 was monitored for 2-3 minutes.
Approximately 20 μg of soluble whole cell extract from each transformed cell line, prepared using Y-PER plus reagent as described above, was incubated in a solution containing about 100 mM Tris, pH 7.5, 10 mM MgCl ? 2, 0.15 mM NADH (Sigma, St. Louis, Mo.), and 2 U Sorbitol Dehydrogenase (SDH) (Roche, Indianapolis, Ind.) at about 30° C. […] A Beckman DU-800 spectrophotometer was utilized with an Enzyme Mechanism software package (Beckman Coulter, Inc, Brea, Calif.), and the change in the A340 was monitored for 2-3 minutes.
Approximately 20 μg of soluble whole cell extract from each transformed cell line was prepared using Y-PER plus reagent as described above was incubated in a solution containing about 100 mM Tris, pH 7.5, 10 mM MgCl2, 0.15 mM NADH (Sigma, St. Louis, Mo.), and 2 U sorbitol dehydrogenase (SDH) (Roche, Indianapolis, Ind.) at about 30° C. […] A Beckman DU-800 spectrophotometer was utilized with an Enzyme Mechanism software package (Beckman Coulter, Inc, Brea, Calif.), and the change in the A340 was monitored for 2-3 minutes.
Approximately 20 μg of soluble whole cell extract from each transformed cell line was prepared using Y-PER plus reagent as described above was incubated in a solution containing about 100 mM Tris, pH 7.5, 10 mM MgCl ? .2, 0.15 mM NADH (Sigma, St. Louis, Mo.), and 2 U Sorbitol Dehydrogenase (SDH) (Roche, Indianapolis, Ind.) at about 30° C. […] A Beckman DU-800 spectrophotometer was utilized with an Enzyme Mechanism software package (Beckman Coulter, Inc, Brea, Calif.), and the change in the A340 was monitored for 2-3 minutes.
The Clostridiales enzyme was further characterized at 1974 μg to confirm the presence of activity.

[3] = chimeric variants, soluble whole cell extract, xylose 40-500 mM

Bacteroides thetaiotaomicron: xylose isomerase of this donor organism
Active? (yes/no) (xylose isomerase [1]): Yes

Streptomyces rubiginosus: xylose isomerase of this donor organism
Active? (yes/no) (xylose isomerase [1]): No

Thermus thermophilus: xylose isomerase of this donor organism
Active? (yes/no) (xylose isomerase [1]): Yes

Piromyces: xylose isomerase from Piromyces strain E2 (SEQ ID NO: 35)
Specific Activity (xylose isomerase [2]; G179A mutant kinetic assays, xylose 40-500 mM): 2.02 µmol/min/mg | Specific Activity (xylose isomerase [2]; [3]): 2.02 µmol/min/mg | Specific Activity (xylose isomerase [2]; soluble whole cell extract, xylose 40-500 mM, 30° C., pH 7.5): 2.02 µmol/min/mg | Active? (yes/no) (xylose isomerase [1]): Yes

Actinoplanes missouriensis: xylose isomerase of this donor organism
Active? (yes/no) (xylose isomerase [1]): No

B1: R. flavefaciens, FD-1 XI: xylose isomerase of Ruminococcus flavefaciens FD1 (ZP_06143883.1, SEQ ID NO: 110) (protein, listed as Ruminococcus flavefaciens)
chain: MEFFKNISKIPYEGKDSTNPLAFKYYNPDEVIDGKKMRDIMKFALSWWHTMGGDGTDMFGCGTADKTWGENDPAARAKAKVDAAFEIMQKLSIDYFCFHDRDLSPEYGSLKDTNAQLDIVTDYIKAKQAETGLKCLWGTAKCFDHPRFMHGAGTSPSADVFAFSAAQIKKALESTVKLGGTGYVFWGGREGYETLLNTNMGLELDNMARLMKMAVEYGRSIGFKGDFYIEPKPKEPTKHQYDFDTATVLGFLRKYGLDKDFKMNIEANHATLAQHTFQHELCVARTNGAFGSIDANQGDPLLGWDTDQFPTNIYDTTMCMYEVIKAGGFTNGGLNFDAKARRGSFTPEDIFYSYIAGMDAFALGYKAASKLIADGRIDSFISDRYASWSEGIGLDIISGKADMAALEKYALEKGEVTDSISSGRQELLESIVNNVIFNL
xylose isomerase activity (slope) of candidate enzymes (FIG. 25) (xylose isomerase [2]; 100 μg total soluble crude extract, saturating xylose (500 mM)): highest activity of the candidates tested | specific activity relative to the native XI control activity (xylose isomerase [2]; Michaelis Mentin plots, xylose between 40 and 500 nM as printed): greater than 2 fold

B2: XI-Rp5: chimera: first 5 amino acids of Piromyces xylose isomerase fused to Ruminococcus xylose isomerase (SEQ ID NO. 56) (protein)
chain: MAKEYFSNIGKIQYQGPKSTDPLSFKYYNPEEVINGKTMREHLKFALSWWHTMGGDGTDMFGCGTTDKTWGQSDPAARAKAKVDAAFEIMDKLSIDYYCFHDRDLSPEYGSLKATNDQLDIVTDYIKEKQGDKFKCLWGTAKCFDHPRFMHGAGTSPSADVFAFSAAQIKKALESTVKLGGNGYVFWGGREGYETLLNTNMGLELDNMARLMKMAVEYGRSIGFKGDFYIEPKPKEPTKHQYDFDTATVLGFLRKYGLDKDFKMNIEANHATLAQHTFQHELRVARDNGVFGSIDANQGDVLLGWDTDQFPTNIYDTTMCMYEVIKAGGFTNGGLNFDAKARRGSFTPEDIFYSYIAGMDAFALGFRAALKLIEDGRIDKFVADRYASWNTGIGADIIAGKADFASLEKYALEKGEVTASLSSGRQEMLESIVNNVLFSL
Km (xylose isomerase [2]; [3]): 66.5 mM | Specific Activity (xylose isomerase [2]; [3]): 1.45 µmol/min/mg

B3: Bacillus subtilis: xylose isomerase of this donor organism (protein, UniProt P0CI80 1-445, looked up)
Xylose isomerase: MAQSHSSSINYFGSANKVVYEGKDSTNPLAFKYYNPQEVIGGKTLKEHLRFSIAYWHTFTADGTDVFGAATMQRPWDHYKGMDLAKMRVEAAFEMFEKLDAPFFAFHDRDIAPEGSTLKETNQNLDMIMGMIKDYMRNSGVKLLWNTANMFTNPRFVHGAATSCNADVFAYAAAQVKKGLETAKELGAENYVFWGGREGYETLLNTDLKFELDNLARFMHMAVDYAKEIGYTGQFLIEPKPKEPTTHQYDTDAATTIAFLKQYGLDNHFKLNLEANHATLAGHTFEHELRMARVHGLLGSVDANQGHPLLGWDTDEFPTDLYSTTLAMYEILQNGGLGSGGLNFDAKVRRSSFEPDDLIYAHIAGMDAFARGLKVAHKLIEDRVFEDVIQHRYRSFTEGIGLEIIEGRANFHTLEQYALNHKSIKNESGRQEKLKAILNQYILEV
Active? (yes/no) (xylose isomerase [1]): No

B4: Clostridium phytofermentans: xylose isomerase of this donor organism (protein)
chain: MKNYFPNVPEVKYEGPNSTNPFAFKYYDANKVVAGKTMKEHCRFALSWWHTLCAGGADPFGVTTMDRTYGNITDPMELAKAKVDAGFELMTKLGIEFFCFHDADIAPEGDTFEESKKNLFEIVDYIKEKMDQTGIKLLWGTANNFSHPRFMH
modifications: Clostridium phytofermentans
notes: xylose isomerase of this donor organism
Active? (yes/no) (xylose isomerase [1]): Yes

B5: Escherichia coli: xylose isomerase of this donor organism (protein, UniProt P00944 1-440, looked up)
Xylose isomerase: MQAYFDQLDRVRYEGSKSSNPLAFRHYNPDELVLGKRMEEHLRFAACYWHTFCWNGADMFGVGAFNRPWQQPGEALALAKRKADVAFEFFHKLHVPFYCFHDVDVSPEGASLKEYINNFAQMVDVLAGKQEESGVKLLWGTANCFTNPRYGAGAATNPDPEVFSWAATQVVTAMEATHKLGGENYVLWGGREGYETLLNTDLRQEREQLGRFMQMVVEHKHKIGFQGTLLIEPKPQEPTKHQYDYDAATVYGFLKQFGLEKEIKLNIEANHATLAGHSFHHEIATAIALGLFGSVDANRGDAQLGWDTDQFPNSVEENALVMYEILKAGGFTTGGLNFDAKVRRQSTDKYDLFYGHIGAMDTMALALKIAARMIEDGELDKRIAQRYSGWNSELGQQILKGQMSLADLAKYAQEHHLSPVHQSGRQEQLENLVNHYLFDK
Active? (yes/no) (xylose isomerase [1]): No

— patent publication US8114974B2, “Engineered microorganisms with enhanced fermentation activity” (Verdezyne, Inc., priority 2009, dated 2012)
